The values that follow come from publication PMC12199146, “Unique conformational dynamics and protein recognition of A-to-I hyper-edited dsRNA”.

The target in series [1] is T1, Endonuclease V (EcEndoV), wild-type (Escherichia coli, UniProt P68739 1-223).
T1 sequence: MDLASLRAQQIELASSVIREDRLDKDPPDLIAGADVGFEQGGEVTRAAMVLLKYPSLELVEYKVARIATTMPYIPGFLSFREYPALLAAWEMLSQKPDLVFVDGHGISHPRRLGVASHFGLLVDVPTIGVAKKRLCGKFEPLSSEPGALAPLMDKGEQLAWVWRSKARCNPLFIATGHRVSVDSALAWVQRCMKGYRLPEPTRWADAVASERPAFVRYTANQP
The experiment in a line: NMR imino line broadening; 5 mM Mg2+, 150 mM NaCl, 288 K, 1:1; backbone interaction, non-specific; EMSA: 25 mM sodium phosphate pH 6.5, 50-300 mM NaCl (500 mM in Fig. S17E), 1 mM DTT, 5 mM MgCl2, 30 min on ice, 2 pmol RNA in 10 ul, 12% native gel in TBE at room temperature; NMR: 25 mM sodium phosphate pH 6.5, 150 mM NaCl, 5 mM MgCl2, 1 mM DTT, 5% D2O, 50 uM RNA, 288 K. The settings on record: protein: recombinant; tags: N-terminal His-tag removed with TEV protease; 20-mer duplex, residues 1-40. For orientation: Mobility shift assays separate free from complexed probe on a gel.

In series [2] the target is T1, Endonuclease V (EcEndoV), wild-type. The experiment in a line: EMSA; EMSA: 25 mM sodium phosphate pH 6.5, 50-300 mM NaCl (500 mM in Fig. S17E), 1 mM DTT, 5 mM MgCl2, 30 min on ice, 2 pmol RNA in 10 ul, 12% native gel in TBE at room temperature; NMR: 25 mM sodium phosphate pH 6.5, 150 mM NaCl, 5 mM MgCl2, 1 mM DTT, 5% D2O, 50 uM RNA, 288 K. The settings on record: protein: recombinant; tags: N-terminal His-tag removed with TEV protease; single strand.

B1: A-RNA (non-edited 20-mer dsRNA) (dsRNA)
RNA 1: ACUGGACAAAUACUCCGAGG
RNA 2: CCUCGGAGUAUUUGUCCAGU
Take B1: the binding result in series [1] is given as “binds”.

B2: ssRNA substrate(s) without inosine (ssRNA)
RNA: CCUCGGAGUAUUUGUCCAGU
Regarding B2, in series [2], the binding result is given as “no binding”.
